Test results as given in paper PMC12157425 (bioRxiv, 2025).
Where no end group is shown, it is not given here. [ ]: non-standard residue; d: D form. pT = C[C@@H](OP(=O)(O)O)[C@H](N)C(=O)O; pS = N[C@@H](COP(=O)(O)O)C(=O)O

Tests used:
[1] = biological target: βarr1 (Homo sapiens, UniProt P49407, A12C/C125S/C140L/C150V/C242V/C251V/C269S/C59V/V387C); experiment: smFRET imaging of surface-tethered βarr1–12-387-AF488-AT647N C-tail sensor; assay type: biochemical; settings: parent sensor, 100 μM PIP2
[2] = biological target: 3Q βarr1 (Homo sapiens, UniProt P49407, C125S/C140L/C150V/C242V/C251V/C269S/C59V/K232Q/K250Q/R236Q); experiment: Fluorescence polarization binding of BODIPY-PIP2 to 3Q βarr1; settings: FP with a BODIPY-derivative of PIP2
[3] = biological target: βarr1–12-387-AF488-AT647N (cysteine-free human β-arrestin 1 C-tail sensor with cysteines at positions 12 and 387) (human) (UniProt P49407); experiment: single-molecule FRET
[4] = biological target: 3A βarr1 (F388A/V387C/I386A triple mutant of the βarr1–12-387 C-tail sensor) (human) (UniProt P49407); experiment: single-molecule FRET
[5] = biological target: βarr1–12-387-AF488-AT647N (cysteine-free human β-arrestin 1 C-tail sensor with cysteines at positions 12 and 387) (human) (UniProt P49407); experiment: single-molecule FRET; remark: listed apart in the source
[6] = biological target: βarr1–12-387-AF488-AT647N (cysteine-free human β-arrestin 1 C-tail sensor with cysteines at positions 12 and 387) (human) (UniProt P49407); experiment: other fluorescence titration
[7] = biological target: βarr1–12-398-AF488-AT647 (human) (UniProt P49407)

Molecule | mid-FRET dwell time representing the PIP2-bound state [1] | binding of PIP2 to βarr1 3Q [2] | EC50 [3] | EC50 [4] | EC50 [5] | EC50 [6] | EC50 [7]
phosphatidylinositol 4,5-bisphosphate [PIP2] | ~2 s | essentially lost binding | – | – | – | – | –
ARGR[pT]PP[pS]LGPQDE[pS]C[pT][pT]A[pS][pS][pS]LAKDTSS | – | – | 11.8 µM | 0.4 µM | 11.6 µM | 1.5 µM | 0.75 µM
ARGRTPPSLGPQDESCT[pT]A[pS][pS][pS]LAKDTSS [P56, V2Rpp-derived phosphopeptide lacking four N-terminal phosphorylation sites] | – | – | – | – | – | 30 µM | –
